Reference: patent publication US10696728B2, “Polypeptides, related nucleic acids, and their uses for cell modulation and treatments” (priority 2014, dated 2020)
Entries after “also recorded” stand apart in the source; their conditions may differ.

B1: TRPV1: Transient Receptor Potential channel Vanilloid 1, full length, amplified from mouse spinal cord cDNA; wild-type comparison channel without D5 (protein)
chain: MEKWASLDSDESEPPAQENSCPDPPDRDPNSKPPPAKPHIFATRSRTRLFGKGDSEEASPMDCPYEEGGLASCPIITVSSVVTLQRSVDGPTCLRQTSQDSVSTGVETPPRLYDRRSIFDAVAQSNCQELESLLSFLQKSKKRLTDSEFKDPETGKTCLLKAMLNLHNGQNDTIALLLDIARKTDSLKQFVNASYTDSYYKGQTALHIAIERRNMALVTLLVENGADVQAAANGDFFKKTKGRPGFYFGELPLSLAACTNQLAIVKFLLQNSWQPADISARDSVGNTVLHALVEVADNTADNTKFVTNMYNEILILGAKLHPTLKLEELTNKKGLTPLALAASSGKIGVLAYILQREIHEPECRHLSRKFTEWAYGPVHSSLYDLSCIDTCEKNSVLEVIAYSSSETPNRHDMLLVEPLNRLLQDKWDRFVKRIFYFNFFVYCLYMIIFTTAAYYRPVEGLPPYKLNNTVGDYFRVTGEILSVSGGVYFFFRGIQYFLQRRPSLKSLFVDSYSEILFFVQSLFMLVSVVLYFSHRKEYVASMVFSLAMGWTNMLYYTRGFQQMGIYAVMIEKMILRDLCRFMFVYLVFLFGFSTAVVTLIEDGKNNSLPVESPPHKCRGSACRPGNSYNSLYSTCLELFKFTIGMGDLEFTENYDFKAVFIILLLAYVILTYILLLNMLIALMGETVNKIAQESKNIWKLQRAITILDTEKSFLKCMRKAFRSGKLLQVGFTPDGKDDFRWCFRVDEVNWTTWNTNVGIINEDPGNCEGVKRTLSFSLRSGRVSGRNWKNFALVPLLRDASTRDRHSTQPEEVQLKHYTGSLKPEDAEVFKDSMAPGEK
modifications: Flag tag; Mouse TRPV1
B2: TRPV1.D5: mouse TRPV1 linked to human domain 5 of kininogen 1 (SEQ ID NO:2), fusion protein expressed from pLVX vector (protein)
chain: MEKWASLDSDESEPPAQENSCPDPPDRDPNSKPPPAKPHIFATRSRTRLFGKGDSEEASPMDCPYEEGGLASCPIITVSSVVTLQRSVDGPTCLRQTSQDSVSTGVETPPRLYDRRSIFDAVAQSNCQELESLLSFLQKSKKRLTDSEFKDPETGKTCLLKAMLNLHNGQNDTIALLLDIARKTDSLKQFVNASYTDSYYKGQTALHIAIERRNMALVTLLVENGADVQAAANGDFFKKTKGRPGFYFGELPLSLAACTNQLAIVKFLLQNSWQPADISARDSVGNTVLHALVEVADNTADNTKFVTNMYNEILILGAKLHPTLKLEELTNKKGLTPLALAASSGKIGVLAYILQREIHEPECRHLSRKFTEWAYGPVHSSLYDLSCIDTCEKNSVLEVIAYSSSETPNRHDMLLVEPLNRLLQDKWDRFVKRIFYFNFFVYCLYMIIFTTAAYYRPVEGLPPYKLNNTVGDYFRVTGEILSVSGGVYFFFRGIQYFLQRRPSLKSLFVDSYSEILFFVQSLFMLVSVVLYFSHRKEYVASMVFSLAMGWTNMLYYTRGFQQMGIYAVMIEKMILRDLCRFMFVYLVFLFGFSTAVVTLIEDGKNNSLPVESPPHKCRGSACRPGNSYNSLYSTCLELFKFTIGMGDLEFTENYDFKAVFIILLLAYVILTYILLLNMLIALMGETVNKIAQESKNIWKLQRAITILDTEKSFLKCMRKAFRSGKLLQVGFTPDGKDDFRWCFRVDEVNWTTWNTNVGIINEDPGNCEGVKRTLSFSLRSGRVSGRNWKNFALVPLLRDASTRDRHSTQPEEVQLKHYTGSLKPEDAEVFKDSMAPGEKCSRVSPPHTSMAPAQDEERDSGKEQGHTRRHDWGHEKQRKHNLGHGHKHERDQGHGHQRGHGLGHGHEQQHGLGHGHKFKLDDDLEHQGGHVLDHGHKHKHGHGHGKHKNKGKKNGKHNGWKTEHLASL
modifications: Flag tag; mouse/human chimera TRPv1.D5

Experiments:
[1] = biological target: T1, wild-type human TRPV1 (Homo sapiens, UniProt Q8NER1); assay: Heart defects in chick embryos with wild-type human TRPV1 exposed to capsaicin; type: in vivo, chicken; conditions: data not shown
T1 construct: expressed in transfected cells; host or cells: chick embryo (neural crest cells, in ovo)
T1 sequence (Q8NER1 whole entry): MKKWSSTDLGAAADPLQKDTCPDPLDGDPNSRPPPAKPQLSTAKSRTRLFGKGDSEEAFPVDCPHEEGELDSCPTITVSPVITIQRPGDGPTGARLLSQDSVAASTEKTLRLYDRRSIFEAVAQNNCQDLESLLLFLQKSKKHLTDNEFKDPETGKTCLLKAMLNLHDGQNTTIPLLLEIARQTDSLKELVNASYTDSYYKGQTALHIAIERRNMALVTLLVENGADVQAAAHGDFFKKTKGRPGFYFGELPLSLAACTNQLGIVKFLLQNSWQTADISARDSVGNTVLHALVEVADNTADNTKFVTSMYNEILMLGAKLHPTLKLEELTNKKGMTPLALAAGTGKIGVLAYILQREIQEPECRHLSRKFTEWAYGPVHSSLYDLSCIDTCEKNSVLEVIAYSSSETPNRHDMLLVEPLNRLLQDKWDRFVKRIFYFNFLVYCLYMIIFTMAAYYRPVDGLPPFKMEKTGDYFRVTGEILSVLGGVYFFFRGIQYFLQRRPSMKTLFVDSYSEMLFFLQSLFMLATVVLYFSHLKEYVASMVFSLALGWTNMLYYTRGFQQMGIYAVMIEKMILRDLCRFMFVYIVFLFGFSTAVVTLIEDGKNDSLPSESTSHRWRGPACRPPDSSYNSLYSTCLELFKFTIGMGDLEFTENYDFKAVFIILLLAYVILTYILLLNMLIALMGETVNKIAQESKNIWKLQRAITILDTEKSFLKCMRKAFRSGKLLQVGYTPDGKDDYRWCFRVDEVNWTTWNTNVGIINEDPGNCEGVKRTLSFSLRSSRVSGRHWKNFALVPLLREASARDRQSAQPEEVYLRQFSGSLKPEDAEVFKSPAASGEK

[2] = tested on: CaMKii; assay: Western blot for phosphorylation of CaMKii (threonine 286) in HEK cells; type: cell-based; conditions: for level of p-CaMKii following RF stimulation: 36 hrs after transfection, FIG. 13
Experimental: HEK cells were transiently transfected with TRPv1.D5. 36 hrs after transfection, TRPv1.D5 cells were exposed to RF. At time points indicated, cells were lysed and protein analyzed by western blot for phosphorylation of CaMKii on threonine^286 (p-CaMKii) using phospho-specific antibodies (top panel). Control cells (0 min) had very little detectable p-CaMKii.

[3] = tested on: HEK-293 cells; assay: GCaMP fluorescence in mCherry+ HEK-293 cells in response to RF (190 MHz Helmholtz coil) or capsaicin; type: cell-based; conditions: for GCaMP response to capsaicin: 1 μM capsaicin; for Ca2+ permeability following RF: RF stimulation 190 MHz, FIG. 12
From the text: A Helmholtz coil (190 MHz) was placed over a petri dish loaded with HEK-293 cells. RF power was supplied by a broadband (0-400 MHz) signal generator and amplified using a 10-W linear amplifier. We used GCaMP as an intracellular calcium indicator whose intensity is proportional to the amount of bound calcium. Using widefield fluorescent microscopy, we measured the change in GCaMP fluorescence in mCherry+ cells expressing TRPV1 and TRPV1.D5 in response to RF stimulation.

[4] = tested on: human ferritin; assay: Subcellular distribution of ferritin (FTH1-mCherry) in HEK-293 cells, confocal imaging; type: cell-based; conditions: co-transfection with FTH1-mCherry in HEK-293, FIG. 9a/9b
Sequence of human ferritin (P02794 whole entry, the tested form may be a part): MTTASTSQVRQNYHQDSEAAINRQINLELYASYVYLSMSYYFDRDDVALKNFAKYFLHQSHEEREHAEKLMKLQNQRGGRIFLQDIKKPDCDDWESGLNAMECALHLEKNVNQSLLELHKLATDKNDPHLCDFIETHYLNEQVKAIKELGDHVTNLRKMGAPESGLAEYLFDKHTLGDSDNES
From the text: TRPV1.D5 redistributes endogenous ferritin to membranes. To visualize subcellular distribution of ferritin, we fused human ferritin with mCherry (FTH1-mCherry) at the C-terminal. Expression of FTH1-mCherry in HEK-293 yielded normal cytoplasmic distribution.

[5] = tested on: chick embryos; assay: Congenital heart defects in chick embryos with channel expression in neural crest cells; type: in vivo, chicken
[6] = tested on: HEK cells; assay: GCaMP fluorescence (Ca2+ influx) in HEK cells at three levels of applied RF field; type: cell-based; conditions: for increase of green fluorescence emitted by GCAMP, all cells (both green and red) / increase of green fluorescence emitted by GCAMP, cells that visually became brighter: FIG. 11
Experimental: Expression of TRPv1.D5 in HEK cells: HEK cell expression was performed using transient transfection. Briefly, 1 μg of plasmid was mixed with Lipofectamine LTX with PLUS reagent (Life Technologies) following the manufacturer instructions. Expression was confirmed by standard western blot technique. Once expression was confirmed, pLVX.TRPv1.D5 was co-transfected with a plasmid containing GCaMP6 (addgene). GCaMP6 is a genetically encoded Calcium indicator. Its green fluorescence increases in the presence of increasing amounts of intracellular calcium. Green fluorescence was analyzed in HEK cells using MetaFluor Analyst Software (Molecular Devices) following manufacture instructions. Transfected cells were analyzed prior to RF exposure and during 10 minutes of RF exposure, as discussed below.
The intensity of red fluorescence protein (RFP) indicates the cells that expressed TRPV1.D5 with mCherry.
FIG. 11 quantifies the fluorescence intensity at three levels of applied electromagnetic fields. Red fluorescence emitted by mCherry (“Red Fluorescence”) increased by less than 6.5% at the end of experiments. Green fluorescence (GCaMP3) emitted by GCAMP in cells without TRPV1.D5 (“GCAMP-TRPV1 (green only, not red)”) increased by less than 6.9%.

[7] = tested on: ferritin; assay: Co-immunoprecipitation of ferritin with Flag-tagged channel; type: binding, human
Sequence of ferritin (P02794 whole entry): as the sequence (P02794 whole entry, the tested form may be a part) above

[8] = tested on: Neural Crest Cells (NCCs) in chicken embryos; assay: p-CaMKii immunostaining in neural crest cells of chick embryos after in ovo electroporation; type: in vivo
From the text: To determine if Ca^2+ flow could be modulated in vivo, we targeted wild-type TRPV1 or TRPV1.D5 expression to pre-migratory Neural Crest Cells (NCCs) in chicken embryos. NCC migration is dependent on control of Ca^2+ influx. (See, Hutson et al. 2003) NCCs transverse long distances through the embryo to enable proper heart development (e.g. outflow tracts). We utilized RF to increase Ca^2+ flow in NCCs while these cells were migrating out of the dorsal neural tube.
TRPV1.D5 was cloned into pLVX-EF1α-IRES-mCherry vectors. Plasmid DNA was then electroporated in ovo into the dorsal neural tube of chick embryos at Hamburger-Hamilton stage 9-11 to target premigratory NCCs. Twenty four hours later, expression of mCherry was confirmed and eggs were then subjected to no RF (FIG. 14a, control) or 10 minutes of RF (FIG. 14b and FIG. 14c). Immediately afterwards, embryos were removed and fixed in paraformaldehyde. These embryos were cryosectioned and stained for mCherry to identify TRPv1.D5+ cells and phosphorylated CaMKii (p-CaMKii) using an anti-Phospho-CaMKII antibody.

Molecule	GCaMP response to capsaicin [3]	Ca2+ permeability following RF [3]	subcellular distribution of FTH1-mCherry (ferritin) [4]	increase of green fluorescence emitted by GCAMP, all cells (both green and red) ([6]; high RF (132 G)) [%]	increase of green fluorescence emitted by GCAMP, cells that visually became brighter ([6]; high RF (132 G)) [%]	increase of green fluorescence emitted by GCAMP, all cells (both green and red) ([6]; low RF (62 G)) [%]	increase of green fluorescence emitted by GCAMP, cells that visually became brighter ([6]; low RF (62 G)) [%]	further results
COc1cc(CNC(=O)CCCC/C=C/C(C)C)ccc1O [capsaicin, reference compound]								replication of the defects caused by TRPV1.D5+RF [1]: replicated; phosphorylation of CaMKii ([2]; 1 μm Capsaicin (Cap+), TRPv1.D5 transfected HEK cells): induced phosphorylation of CaMKii
B1	responded equally well	only TRPV1.D5 induced a transient increase	cytoplasmic distribution was not altered	22.2	151.3	9.0	48.3	development of heart defects ([5]; with or without RF): Neither the TRPV1 embryos (with or without RF) nor the non-RF treated TRPV1.D5 embryos developed any defects
B2	responded equally well	induced a transient increase in Ca^2+ permeability; also recorded: increases Ca^2+ ion modulation	redistributed FTH1-mCherry to cell membranes	22.2	151.3	9.0	48.3	co-immunoprecipitation of Ferritin-mCherry ([7]; Flag-labelled channel, FIG. 9e, listed as Flag-TRPV1.D5): co-immunoprecipitates; pull-down of ferritin-mCherry and endogenous ferritin by immunoprecipitation ([7]; data not shown): successfully pulled down both ferritin-mCherry and endogenous ferritin; p-CaMKii in neural crest cells ([8]; 10 minutes of RF, FIG. 14b/14c): clear co-localization of the mutant channel and p-CaMKii; p-CaMKii in neural crest cells ([8]; no RF (control animals), FIG. 14a): did not observe detectable levels of p-CaMKii; heart defects on RF activation in cardiac neural crest cells ([5]; RF for 10 minutes, FIG. 15): results in heart defects; embryos that developed congenital heart defects (VSD, double outlet right ventricle, transposition of great vessels) ([5]; RF-treated, day 10 post experiments): ~60%; development of heart defects ([5]; non-RF treated): nor the non-RF treated TRPV1.D5 embryos developed any defects; GCAMP3 intensity on application of RF/EM fields ([6]; with vs without RF, FIG. 10): increased in the presence of RF; also recorded: increased GCAMP3 intensity; time of peak p-CaMKii level following RF stimulation ([2]; TRPv1.D5+ HEK cells): 10 min; level of p-CaMKii following RF stimulation ([2]; TRPv1.D5+ HEK cells): induces p-CaMKii; level of p-CaMKii following RF stimulation ([2]; TRPv1.D5+ HEK cells, listed as TRPv1.D5): increases
